Protein production data for 18 sequences are collected here from a protein production outcome set (Wang et al. 2014).

The series is described as follows: label from the status in PepcDB records.

Turning to “MRFGPVALSAAKGALLAHSRKAPGWTLAKGTRLGDEDLALLAGLGVAEVVVARLDPGDVHEDEAAARVAAVLLGPGLTLGDAFTGRANLFAGGDGLLRLDAARFDRLNALCEGLTVATLPPFAKVAPRQMVATVKIIPFALPETVIAQAEALLAGAPALEVALFRPMRLALIQTHLPETAGKMLDKTASVTAGRMAALGGGLTVDRRCPHDTRALAACLSAVSAEKDVDLIAVAGASAIVDRGDVIPAAITRAGGRVDHLGMPVDPGNLILLGELAGRVVLGLPGCARSPAINGFDWVLDRLCAGLAVGGADLMAMGVGGLLKDTTARTQPRMAAVTHPSPAAPPRLGALVLAAGLSRRMGGVNKLLLDWRGKPLVAHAVDTVLAAGPAAVAVVIGHQGKAVRAALEGRAIALVENPDPGRGLGSSLKRGLAALPADLDGVIVCLGDMPGLTPRLLSRLIAAFAPLEGRAICLPTFGGRRGNPVLFAARFLPEMMEITGDIGARPVIAAHPDQTCEVAMDALAEGASVLMDVDTPEAAKALLSAGGLEHHHHHH”, the protein production result is given as “failed”.
Regarding “MRFHFFPQPLDRAAWSVFLVALVLTLLLVWGGDRTQAQVREFSWQNRDVGASDRAFILSFNRLMDWSSVATHLRIEPALEGKASWSGRRFAYTLTQPIPYGQTFKVSLEDAVSVPQGKPIKPFQGQFRSRDRVLVYLGSGAEEGRLILYNLTLQQKIFLTPPNLRVFDFQPYPAGDRILFSAGERGEQMGFDPQLYIVTTGLYFNAPDTPRRQAHPAGEISLILDNSEYQNLRFQLANDGSKIVVQRVNRLQPADSSLWLLDENFQPRRLNQAAAGEFRIAPDNQHLIIAQGQGLAIVPLEATNGESNFDFLPQYGMVLDFSRDGRQVAAVKFNPNFSRSLYVVDIFGEHREVLTINGSIIAGQFDPSGQFLYVILTRIEGEGNYREVPYLALLDLKTKELFKLKDFDPQQELYLSLAPDGRTLAIDAVEGREIPAEVDHGDLYSETAPVTPSPRDLVELPPAPPGSPLPPRQLPAQEHQIWLLPLKLDQDKIVVGMPEPLAPGLQARWLP”, the protein production result is given as “failed”.
As for “MRFPFCTGGKTFVLWDVEVCPIPDGLGPHDVFSNIKRVLMDNGYRGDVSTTPYTDLTKSNGEFNGIPVRHLSAGDRDARLEVYMIDLYSCVVKEDGPLNLMLFVGDISSRSKDFFRVFRLLQSSSSDSSVPLSLTQDGICKALTFGEEVIIRECGERRKVPNSD”, the entry is “not failed”; as for “MRFRQLLPLFGALFALYIIWGSTYFVIRIGVESWPPLMMAGVRFLSAGMLLMAFLLLRGEKLPPLRQTINAALIGLLLLAVGNGLVTVAEHQNVPSGIAAVVVATVPLFTLCFSYFFGIKTRKLEWVGIAIGLAGIILLNSGGNLSGNPWGAILILIGSMSWAFGSVYGSRIALPVGMMAGAIEMLAAGVVLLCAAFLSGEKLATLPGLSGLMAVGYLALFGSIIAINAYMYLIRNVSPALATSYAYVNPVVAVLLGTGLGGERLSPVEWAALGVIVFAVVLVTLGKYLFPARAVVTPCKTEDSRQ”, “failed”; as for “MRFVATGDWQLGMTAHYLSTEARPRFHRARLDAVKRIGEIAAEQSCDFVVVCGDVFESNQLDRAIISRTFEVLAAFTVPVVLLPGNHDPLDAASIYDSHAFTSRQPGHVHVLRDSEPFEVRPGVEIIGAPWFSKRPQGDLVAQATQNLAEAAPGKVRIIAGHGAVSTLDPDRESLATIDVDSLKTVLREDRAQFVALGDRHATYAVDERIWYSGAPEVTSRREDDPGNVLLVDIDAQSHASSVEKMHIGRWSYLVVEEDVNSDEDVSHLEQRLADIPDKDSTAVWLILRGTLSTAAKSRLDDILDHATDLFALVSLWERHTDIAVVAADEDFAGLGLSGYLQESLDELAETAAGEDLSASAAQDALGLLYRFARSGS”, “failed”.
On to “MRGEFYQQLTNDLETARAEGLFKEERIITSAQQADITVADGSHVINFCANNYLGLANHPDLIAAAKAGMDSHGFGMASVRFICGTQDSHKELEQKLAAFLGMEDAILYSSCFDANGGLFETLLGAEDAIISDALNHASIIDGVRLCKAKRYRYANNDMQELEARLKEAREAGARHVLIATDGVFSMDGVIANLKGVCDLADKYDALVMVDDSHAVGFVGENGRGSHEYCDVMGRVDIITGTLGKALGGASGGYTAARKEVVEWLRQRSRPYLFSNSLAPAIVAASIKVLEMVEAGSELRDRLWANARQFREQMSAAGFTLAGADHAIIPVMLGDAVVAQKFARELQKEGIYVTGFFYPVVPKGQARIRTQMSAAHTPEQITRAVEAFTRIGKQLGVIA”, for which the protein production entry is given as “not failed”.
With “MRGFFSNPWIRWALSLAFLGVILFFLRDQLDFLKMGIQQIRHVSPVGVALTMVALVLSFVAMARVMQIMLKAGGSPATLKATTALTFAANSWSATLPGGPAFSAILTYKVQRSWGASAVLCSWFFLLSSALSTVWLVALGVIAVFYMGASLNLWSLIATFIAMVGLSGAVYWAANNPDSLARWVRKLTKNREWGFVEKLLGSIEQLRSVSLTGPQFAASTAWSLGNRLFDAISLWICIWAVTGTAPMFEPEPNNTTIAGVLLAYTTAKIAGSIQATPGGIGPIEAAYIAALVATGMTAVEAAGAVIIYRLCSFIIMAIVGWVIYFIYFTPQGLKANESLDVEQDTINSDSNRQSAIERPDT”, the protein production result is recorded as “failed”.
With “MRGGSLWQLGQSITRRLAQSDKKVVSRRYFASEADLKKTALYDFHVAHGGKMVPFAGWSMPIQYKDSIMDSTVNCRENGSLFDVAHMCGLSLKGKDCVPFLETLVVADVAGLAPGTGSLTVFTNEKGGAIDDSVITKVTDEHIYLVVNAGCRDKDLAHIEEHMKAFKSKGGDVSWHIHDERSLLALQGPLAAPVLQHLTKEDLSKLYFGNFQILDINGSTCFLTRTGYTGEDGFEISVPDEHAVDLAKAILEKSEGKVRLTGLGARDSLRLEAGLCLYGNDMEQHISPVEAGLTWAIGKRRRAEGGFLGADVILQQLKDGPTIRRVGFFSSGPPARSHSEVHDESGNKIGEITSGGFSPNLKKNIAMGYVKSGQHKTGTKVKILVRGKPYEGSITKMPFVATKYYKPT”, the protein production result is given as “failed”.
Next, “MRGLSSLLLMIVLALLLYPLPHGVILIGIMTLSLLSHTLGIISLGILALYLIVFRITNIVGVAIMALGLLVVEIREMEKIRAPMEHFLYLIVAVGLSLLTYFGVYAISLAGVSLDVTLLAVLFLLLLYAFIRISVLSP”: “failed”.
On to “MRHFDASQPLRVAVLGTGFGSKVHIPALQHHSETTVQAVYHRQPDRAAAIAVQFGIPNAYSDLDQLLADPAIEAVTIASPPFLHYPMAWAALSAGKSVLLEKPTTLNVEEARALWKLASSQGLTVTLDFEYRFVPAWQYVAELLAEGVIGQPWLVKLDWLMSSRADASRPWNWYALRSQGGGALGALGSHSFDYLAWLFGPARRLQARLFTAIQERPDATTGELKPVDSDDTDLIQLELAEGVPCQISLSSVFRQGRGHWLEVYGDRGTLILGSSNQKDYVHGFQVWFASAGQALQELTVPQRLAFRQEFADGRLAPFLRVVDHWLADLRHGQMTAPSLKEGLYSQLLIDLCWQSQRSGEWQTVPELNRFLLEHHHHHH”, for which the protein production result is listed as “failed”.
As for “MRHGEIARAARSAVPRRARAALPLACAALVAAGLAARAAGAAAPPPAPPAAAPARVLSAAVKGPITGGTVEYLEAALARARTGGFAALVVTLDTPGGQLDATREIVQAMLATEVPVIVWVGPAGARAGSAGVFLTLAADVAAMHPTSNIGAAHPVTGAGKDVAEEAGKDMAKKVENDTAAFARSVAAARGRNADWAEKAVRESVSVTAEEALRLKVADLTAADLPELLAKADGRKVGQGAAARPLKVAGAAIEPYEPTVRQRLLGFLADPNVMAILMLVGMLGIAVEFYHPGMIFPGAVGGFCLFLAFLAMRVIPVNVGAVILLLAGVGLLVAEAYVTAHGLAGLAGAACLVLGTLFFVNTSAPGDWFDPGALRLSPWVIWPTPAALALLLAFMAWNVARVRRAPLQLGAPALVGAPGEALSEIGPAAGEAFVHGEYWQARSAAPIPRGAAVRVVAVEGLTVTVVAAGPGNG”, the entry is “failed”; as for “MRHLITSLQNHNGQLKGEVQRYKRKYKDTSTDNLKLRQELADALATLEGNKLQAATGAAGEEIKQENSTGVKEENSNNVSASGQTNQTNSGNDTNVAIKEENHISAEDEADDEASGKDVKDGIKQEKLSSGDAAAAEKKDSPGPGNSTSSATNSVPVKNEKDSKDGVKGKDVKAVESETV”, “failed”.
On to “MRHNIKFKSKGTLKIRNTAQISLWKKCSDSMIADQTYLFINRVQDRRFDEESLRILELSLVAMNVKSFLEVRSRLRDFMRSESVVIFGELTGESMVAKLSVLEFFARAFALLGDMESCLAMRYEALNLRQLKSPSCLWLGVSHSEWTKFAVQSMENGFPSIAGKASENALLSLKKDSLIEPKSEDNSDILDAAEKVRRLRDSAASLTSSHSGIFIYIVSSLKFAVCNRLLTTF”, for which the protein production result is “failed”.
Consider “MRHWLILFLLALPCLAGAVSFNEQVERLPLGQSIDVFEDVRGSADINDITSRAIDSSFRRHDKDVLNAGYSRSVFWLRLDLDYRPVASSDPRTWLLELAYPPLDKLDLYLPDGQGGYRLAQRTGDTLPFASRPIRQNNYLFELGLEPNKPQRVYLRLESQGSIQAPLTLWSPKAYLEEQPERIYVLGIIYGVLLVMLIYNLFIFLSVRDTSYLYYILYIASFGLYQVSVNGAGIEYFWPDSPWWANAATPFLIGSAALFGCQFARSFLHTRDHSVWVDRGLLALMAVGALVMLMALTMSYAVALRLATYLALAFTGLIFAAGILAWLRGMRVARYFIIAWTAFLLGGIVNTLMVLGYLPNMFLTMYASQIGSALEVGLLSLALADRINAMKEERARILQESSRKLEALNQELANSNRLKDEFLATVTHELRTPMSGVIGSLELMQTVPMDVELAEYQRTAAGSARDMMRMVNDILALIELQAGKLYPRREPFSLRGLFDSLRAQYAPRVEEKGLRFALQLDDSLPDTLEGDAGKLAQALGYLVDNAIKFTARGSVTLRVAAGRTHDGVALRVEVIDTGIGFDMAAGSDLYQRFVQADSSLTRGYGGLGIGLALCRKLVELLGGELTHESRPGQGSRFLLRLQLTQPAQGLAPPPRRAGGQAVRRPEECTVLVVEDNAINQLVTRGMLLKLGYRVRTADNGSEALELLARERPDGVLLDCQMPVMDGFATCRAIRALPGCAELPVLALTAHSHSGDRERCLAAGMSDYMAKPVKFEELQTLLHDWLLCQPIVTKSA”, for which the protein production result is on record as “failed”.
Consider “MRIAGIEPESIVDGPGIRFTVFTQGCPLQCPGCHNPATWDPCGGQEVDVEEVIAAMNSSVLASGLTLSGGEASRQPRACARLARAAHEMGWDVWSWSGYTVEALMRQARRDAELADMLGQIDVLVDGPFQLVHRTLTLPWRGSSNQRVIDMPATLRGGRAVEWADRAGNLR”, for which the protein production result is recorded as “failed”.
Next, “MRIDLSVPKVGAELELNKVLGKGSSGSVSLIKYKSRLDGQTLYAAVKTSNIIHADSLLKEFQILSEFKGCSRIVQCYGTKVQETINEEGDVEFTIPMEYASGGSLRHFMSRFKDMKLPDALIRRFTRMILEGLAVIHGHGYVHCDLKPENILVFPSFELKISDFGLSKREGDSKWWLPSHPFAGTPVYMSPESISNGETRRGLDLWSLGCVVLEMYTGKRPWWDKNYDLGDLKKGSMPLISKDIPCDAKLFVMTCFASETNKRKNAFTLLRHCFLRGDVNKIIEPLVKSKNSNDIALELENIEHRLSQLRCISGG”: “failed”; “MRIGHGFDVHAFGGEGPIIIGGVRIPYEKGLLAHSDGDVALHALTDALLGAAALGDIGKLFPDTDPAFKGADSRELLREAWRRIQAKGYTLGNVDVTIIAQAPKMLPHIPQMRVFIAEDLGCHMDDVNVKATTTEKLGFTGRGEGIACEAVALLIKATK”: “not failed”; “MRIGIISVGPGNIMNLYRGVKRASENFEDVSIELVESPRNDLYDLLFIPGVGHFGEGMRRLRENDLIDFVRKHVEDERYVVGVCLGMQLLFEESEEAPGVKGLSLIEGNVVKLRSRRLPHMGWNEVIFKDTFPNGYYYFVHTYRAVCEEEHVLGTTEYDGEIFPSAVRKGRILGFQFHPEKSSKIGRKLLEKVIECSLSRR”: “not failed”.
